Where two headings read alike, the source gives them in different places.
Tests used:
Assay in all cases: Luminex bead binding, supernatant
[1] = target: T1, Human SARS Coronavirus Spike S1 Subunit Protein (His Tag) (Sino 40150-V08B1) (Human SARS Coronavirus, UniProt P59594 14-667)
[2] = target: T2, MERS-CoV (NCoV/Novel coronavirus) Spike Protein (ECD, aa 1-1297, His Tag) (Sino 40069-[change]) (MERS-CoV, UniProt K9N5Q8 18-1297)
T2 sequence: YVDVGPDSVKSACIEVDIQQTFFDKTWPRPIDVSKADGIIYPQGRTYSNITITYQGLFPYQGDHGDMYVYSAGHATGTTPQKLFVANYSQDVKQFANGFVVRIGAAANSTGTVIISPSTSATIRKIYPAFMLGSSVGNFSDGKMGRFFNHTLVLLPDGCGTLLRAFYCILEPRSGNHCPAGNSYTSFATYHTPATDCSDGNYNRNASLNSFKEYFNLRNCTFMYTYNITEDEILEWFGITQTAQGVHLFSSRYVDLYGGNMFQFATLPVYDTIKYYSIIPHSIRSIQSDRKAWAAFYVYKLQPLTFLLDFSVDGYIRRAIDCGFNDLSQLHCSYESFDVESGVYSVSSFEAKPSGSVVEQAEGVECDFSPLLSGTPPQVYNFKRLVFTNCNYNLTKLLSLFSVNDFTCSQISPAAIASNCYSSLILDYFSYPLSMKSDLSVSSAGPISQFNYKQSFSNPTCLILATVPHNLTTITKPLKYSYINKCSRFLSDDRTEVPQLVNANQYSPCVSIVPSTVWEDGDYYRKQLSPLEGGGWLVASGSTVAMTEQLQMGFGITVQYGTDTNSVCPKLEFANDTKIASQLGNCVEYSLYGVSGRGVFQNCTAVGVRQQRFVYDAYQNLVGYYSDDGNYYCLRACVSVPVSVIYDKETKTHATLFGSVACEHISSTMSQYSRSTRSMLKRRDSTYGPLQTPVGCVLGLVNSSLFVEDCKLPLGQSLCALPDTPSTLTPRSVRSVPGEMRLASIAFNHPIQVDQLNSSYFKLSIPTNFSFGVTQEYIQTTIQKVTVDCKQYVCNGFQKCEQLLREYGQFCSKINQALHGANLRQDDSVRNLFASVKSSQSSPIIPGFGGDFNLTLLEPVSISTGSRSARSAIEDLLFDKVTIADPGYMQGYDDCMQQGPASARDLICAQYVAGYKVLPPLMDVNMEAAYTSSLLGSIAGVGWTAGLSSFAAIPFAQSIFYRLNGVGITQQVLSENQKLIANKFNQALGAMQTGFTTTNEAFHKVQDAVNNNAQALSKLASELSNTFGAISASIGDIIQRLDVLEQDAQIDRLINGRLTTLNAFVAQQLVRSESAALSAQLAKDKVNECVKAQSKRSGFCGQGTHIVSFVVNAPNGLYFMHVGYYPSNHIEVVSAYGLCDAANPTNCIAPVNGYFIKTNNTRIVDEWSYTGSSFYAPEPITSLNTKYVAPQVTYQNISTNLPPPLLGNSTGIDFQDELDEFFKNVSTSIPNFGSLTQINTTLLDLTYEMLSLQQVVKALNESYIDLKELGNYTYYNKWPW

[3] = target: T3, MERS-CoV (NCoV/Novel coronavirus) Spike Protein S2 (aa 726-1296, His Tag) (Sino 40070-[change]) (MERS-CoV, UniProt K9N5Q8 726-1296)
T3 sequence: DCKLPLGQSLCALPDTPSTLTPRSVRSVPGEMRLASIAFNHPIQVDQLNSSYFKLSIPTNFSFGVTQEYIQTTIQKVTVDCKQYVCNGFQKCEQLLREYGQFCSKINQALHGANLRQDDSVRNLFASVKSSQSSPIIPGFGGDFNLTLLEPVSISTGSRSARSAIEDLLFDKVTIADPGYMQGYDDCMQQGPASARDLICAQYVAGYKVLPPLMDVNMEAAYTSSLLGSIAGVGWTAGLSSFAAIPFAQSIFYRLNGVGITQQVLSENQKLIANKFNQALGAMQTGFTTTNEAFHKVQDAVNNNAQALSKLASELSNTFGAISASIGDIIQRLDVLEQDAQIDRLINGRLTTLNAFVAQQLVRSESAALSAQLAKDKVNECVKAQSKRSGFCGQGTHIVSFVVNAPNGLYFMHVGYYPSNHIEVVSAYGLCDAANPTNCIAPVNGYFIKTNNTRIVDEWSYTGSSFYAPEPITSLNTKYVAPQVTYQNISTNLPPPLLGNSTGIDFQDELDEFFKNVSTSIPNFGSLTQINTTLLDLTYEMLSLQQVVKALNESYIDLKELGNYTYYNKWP

[4] = target: T4, MERS-CoV (NCoV/Novel coronavirus) Spike Protein fragment (RBD, aa 367-606, His Tag) (Sino 40071-V08B1) (MERS-CoV, UniProt K9N5Q8 367-606)
T4 sequence: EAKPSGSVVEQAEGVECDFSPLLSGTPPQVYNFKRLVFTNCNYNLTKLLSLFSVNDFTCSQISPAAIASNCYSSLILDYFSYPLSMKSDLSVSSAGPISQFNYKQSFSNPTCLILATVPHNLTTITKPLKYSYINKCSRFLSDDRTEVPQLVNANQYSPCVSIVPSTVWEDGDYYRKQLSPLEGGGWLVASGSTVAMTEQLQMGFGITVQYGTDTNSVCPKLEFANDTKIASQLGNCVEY

[5] = target: T1, Human SARS Coronavirus Spike S1 Subunit …; remark: listed apart in the source
[6] = target: SARS-CoV-2 Spike Protein (RBD)(R319-F541).mFc (mAb10621-L1) (SARS-CoV-2)
[7] = target: SARS-CoV-2 Spike Protein (RBD)(R319-F541).hFc (mAb10622-L1) (SARS-CoV-2)
[8] = target: Bt-SARS-CoV-2 Spike Protein (RBD)(R319-F541).mFc (mAb10621-L2) (SARS-CoV-2)
[9] = target: T2, MERS-CoV (NCoV/Novel coronavirus) Spike …; remark: listed apart in the source
[10] = target: T3, MERS-CoV (NCoV/Novel coronavirus) Spike …; remark: listed apart in the source
[11] = target: T4, MERS-CoV (NCoV/Novel coronavirus) Spike …; remark: listed apart in the source

B1: mAb10969 (antibody, V domains shown)
VH: QVQLVESGGGVVQPGRSLRLSCAASGFTFSSYAMHWVRQAPGKGLEWVAVISYDGSNKYYADSVKGRFTISRDNSKNTLYLQMNSLRAEDTAVYYCARDGRTITMVRGVIDDAFDIWGQGTMVTVSS
VL: not shown
Binding signal (MFI) [1]: 20 MFI
Binding signal (MFI) [2]: 16 MFI
Binding signal (MFI) [3]: 20 MFI
Binding signal (MFI) [4]: 26 MFI

B2: mAb10998 (antibody, V domains shown)
VH: EVQLVESGGGLVHPGGSLRLSCAASGLTVSSNYMSWVRQAPGKGLEWVSVIYSGGSTYYADSVKGRFTISRHNSKNTLFLQMNSLRAEDTAVYYCARDRPITGTTLDVWGQGTTVTVSS
VL: DIQMTQSPSSLFASVGDRVTITCRASQSISSYLNWYQQKPGKAPKLLIYAASSLQSGVPSRFSGSGSGTDFTLTISSLQPEDFAFYYCQQTYSTPPITFGQGTRLEIK
Binding signal (MFI) [5]: 16 MFI
Binding signal (MFI) [6]: 2230 MFI
Binding signal (MFI) [7]: 1740 MFI
Binding signal (MFI) [8]: 2230 MFI

B3: mAb11002 (antibody, V domains shown)
VH: EVQLVESGGGLVQPGGSLRLSCAASGFTVSSNYMSWVRQAPGKGLEWVSVIYSGGSTFYADSVKGRFTISRHNSKNTLYLQMNSLRAEDTAVYYCAREGYGMDVWGQGTTVTVSS
VL: not shown
Binding signal (MFI) [5]: 31 MFI
Binding signal (MFI) [6]: 9530 MFI
Binding signal (MFI) [7]: 9380 MFI
Binding signal (MFI) [8]: 2200 MFI

B4: mAb10955 (antibody, V domains shown)
VH: EVQLVESGGGLVQPGGSLRVSCAASGFTVSRNYMSWVRQAPGKGLEWVSVIYSGGSTFYADSVKGRFTISRDNSKNTLYLQMNSLRAEDTAIYYCARYIPRFDPWGQGTLVTVSS
VL: DIQMTQSPSSLSASVGDRVTITCQASQDISNYLNWFQQKPGRAPKLLIYDASNLETGVPSRFSGSGSGTDFTFTISSLQPEDIATYYCQQYDNLPITFGQGTRLEIKR
Binding signal (MFI) [1]: 14 MFI
Binding signal (MFI) [2]: 15 MFI
Binding signal (MFI) [3]: 18 MFI
Binding signal (MFI) [4]: 20 MFI

B5: mAb11010 (antibody, V domains shown)
VH: QVQLVESGGGVVQPGRSLRLSCAASGFTFSSYGMHWVRQAPGKGLEWVAVISYDGSYKYYADSVKGRFTISRDNSKNTLYLQMNSLRAEDTAVYYCAIDGGTVTTIFDYWGQGTLVTVSS
VL: not shown
Binding signal (MFI) [5]: 7420 MFI
Binding signal (MFI) [6]: 14400 MFI
Binding signal (MFI) [7]: 8880 MFI
Binding signal (MFI) [8]: 9350 MFI

B6: mAb11004 (antibody, V domains shown)
VH: QVQLVESGGGVVQPGRSLRLSCVASGFTFSIYGMDWVRQAPGKGLEWVAVISYDGSNKYYADSVKGRFTISRDNSKNTLYLQMNSLRPEDTAVYYCAKDREAAADAFDIWGQGTMVTVSS
VL: DIQMTQSPSSVSASVGDRVTITCRASQGISSWLAWYQQKPGKAPKLLIYAASSLHSGVPSRFSGSGSGTDFTLTISSLQPEDFATYYCQQANSFRLTFGGGTKVEIK
Binding signal (MFI) [5]: 33 MFI
Binding signal (MFI) [9]: 15 MFI
Binding signal (MFI) [10]: 20 MFI
Binding signal (MFI) [11]: 26 MFI
Binding signal (MFI) [6]: 4580 MFI
Binding signal (MFI) [7]: 4880 MFI
Binding signal (MFI) [8]: 4300 MFI

B7: mAb11008 (antibody, V domains shown)
VH: EVQLVESGGGLVQPGGSLRLSCAASGFTVSSNYMTWVRQAPGKGLEWVSVIYSGGSTFYADSVKGRFTISRHNSENTLYLQMNSLRAEDTAVYYCARDLAAAGTDYWGQGALVTVSS
VL: DIQLTQSPSFLSASVGDRVTITCWASQGISSYLAWYQQKPGKAPKLLIYAASTLQSGVPSRFSGSGSGTEFTLTISSLQPDDFATYYCQHLNSYLYTFGQGTKLEIK
Binding signal (MFI) [5]: 31 MFI
Binding signal (MFI) [9]: 18 MFI
Binding signal (MFI) [10]: 16 MFI
Binding signal (MFI) [11]: 20 MFI
Binding signal (MFI) [6]: 4260 MFI
Binding signal (MFI) [7]: 2570 MFI
Binding signal (MFI) [8]: 3050 MFI

B8: mAb10971 (antibody, V domains shown)
VH: EVQLVESGGGLIQPGGSLRLSCAASGVTVSSNYMSWVRQAPGKGLEWVSVIYSGGSTFYSDSVKGRFSISRDNSKNTLYLQMNSLRAEDTAVYYCARDLYYYGMDVWGQGTTVTVSS
VL: DIQLTQSPSFLSASVGDRVTITCRASQGISTYLAWYQQKPGKAPKLLIYAASTLQSGVPSRFSGSGSGTEFTLTISSLQPEDFATYYCQQLDSYPGLTFGGGTKVEIKR
Binding signal (MFI) [1]: 20 MFI
Binding signal (MFI) [2]: 15 MFI
Binding signal (MFI) [3]: 13 MFI
Binding signal (MFI) [4]: 20 MFI

B9: mAb11000 (antibody, V domains shown)
VH: EVQLVESGGGLVQPGGSLRLSCAASGFTVSSNYMNWVRQAPGKGLEWVSVIYSGGSTFYADSVRGRFTISRHNSKNTLYLQMNSLRAEDTAVYYCARDGSAYGMDVWGQGTTVTVSS
VL: not shown
Binding signal (MFI) [11]: 27 MFI

Reference: US20240043504A1 (published 2024)
